The results in this text go back to patent US12460006B2, “Antibodies against integrin alpha 11 beta 1” (Momenta Pharmaceuticals, Inc., priority 2019, dated 2025).

For one test, the target named is human α11β1 (Homo sapiens, UniProt Q9UKX5). The experiment in a line: ELISA binding to recombinant human α11β1. The settings on record: binding Yes/No. The method, boiled down:
(§1)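 First, wells were coated overnight at 4° C with 0.25 μg/mL recombinant α11β1 from human or mouse. Next came BSA blocking and a range of antibody concentrations for 1 h at room temperature. Finally, biotin anti-IgG, streptavidin-HRP and TMB development gave the 450 nm signal.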

The test system of test [1] is human pulmonary fibroblasts (HPFs). The test is described as follows: FACS antibody binding to human pulmonary fibroblasts. The settings on record: binding Yes/No.
The next test relates to myofibroblasts (MF). The experiment in a line: FACS antibody binding to myofibroblasts. Also noted: species or system human. The settings on record: binding Yes/No. The method, boiled down:
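Human pulmonary fibroblasts, serum-starved 24 h then TGFβ-1-treated 72 h to give myofibroblasts, were blocked with heat-inactivated FBS and stained with anti-α11 antibodies, then PE secondary, 30 min each at 4 °C, before 1% PFA fixation. Binding read by flow cytometry as PE geometric MFI of single cells.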

Another test concerns the target T1, I domain of α11β1 (Homo sapiens, UniProt Q9UKX5).
T1 construct: An in-house generated I domain of α11β1 was used; made in house
T1 sequence (Q9UKX5 164-345 limits assumed): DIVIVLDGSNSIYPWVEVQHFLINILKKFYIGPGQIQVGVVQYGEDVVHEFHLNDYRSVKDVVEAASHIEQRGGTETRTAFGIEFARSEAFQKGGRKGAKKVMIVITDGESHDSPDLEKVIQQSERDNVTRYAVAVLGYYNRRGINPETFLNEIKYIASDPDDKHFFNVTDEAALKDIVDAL
The test is described as follows: ELISA binding to in-house generated I domain of α11β1. The settings on record: Yes/No. The method, boiled down: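 Plate-coated antigen (0.25 μg/mL, overnight 4° C) probed with antibody dilution series 1 h at room temperature, then biotinylated anti-IgG and streptavidin-HRP, 1 h each. TMB substrate 5 min, stopped, absorbance at 450 nm; in-house I domain of α11β1 used as target.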
(In an ELISA, binding on a coated surface is turned into a signal by an enzyme label.)

Test [2] relates to CHO-K1 cells expressing human α11. The experiment in a line: Cell adhesion inhibition (xCelligence), type I collagen. The format is cell-based. The settings on record: Yes/No. The method, boiled down:
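CHO-K1 cells expressing human α11 (0.6×10^6 cells/mL) were preincubated with mAbs across a concentration range for 20 min at 37° C, then seeded on wells coated with 100 ng/mL type I collagen and blocked with 3% BSA. Impedance-based adhesion was recorded over 6 h, and maximum adhesion was compared with untreated control.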

In another test the target is mouse α11β1 (Mus musculus, UniProt P61622). The test is described as follows: ELISA binding to recombinant mouse α11β1. The settings on record: binding Yes/No. The method, boiled down:
as §1

Chain of mouse α11β1 (P61622 23-1141 limits assumed): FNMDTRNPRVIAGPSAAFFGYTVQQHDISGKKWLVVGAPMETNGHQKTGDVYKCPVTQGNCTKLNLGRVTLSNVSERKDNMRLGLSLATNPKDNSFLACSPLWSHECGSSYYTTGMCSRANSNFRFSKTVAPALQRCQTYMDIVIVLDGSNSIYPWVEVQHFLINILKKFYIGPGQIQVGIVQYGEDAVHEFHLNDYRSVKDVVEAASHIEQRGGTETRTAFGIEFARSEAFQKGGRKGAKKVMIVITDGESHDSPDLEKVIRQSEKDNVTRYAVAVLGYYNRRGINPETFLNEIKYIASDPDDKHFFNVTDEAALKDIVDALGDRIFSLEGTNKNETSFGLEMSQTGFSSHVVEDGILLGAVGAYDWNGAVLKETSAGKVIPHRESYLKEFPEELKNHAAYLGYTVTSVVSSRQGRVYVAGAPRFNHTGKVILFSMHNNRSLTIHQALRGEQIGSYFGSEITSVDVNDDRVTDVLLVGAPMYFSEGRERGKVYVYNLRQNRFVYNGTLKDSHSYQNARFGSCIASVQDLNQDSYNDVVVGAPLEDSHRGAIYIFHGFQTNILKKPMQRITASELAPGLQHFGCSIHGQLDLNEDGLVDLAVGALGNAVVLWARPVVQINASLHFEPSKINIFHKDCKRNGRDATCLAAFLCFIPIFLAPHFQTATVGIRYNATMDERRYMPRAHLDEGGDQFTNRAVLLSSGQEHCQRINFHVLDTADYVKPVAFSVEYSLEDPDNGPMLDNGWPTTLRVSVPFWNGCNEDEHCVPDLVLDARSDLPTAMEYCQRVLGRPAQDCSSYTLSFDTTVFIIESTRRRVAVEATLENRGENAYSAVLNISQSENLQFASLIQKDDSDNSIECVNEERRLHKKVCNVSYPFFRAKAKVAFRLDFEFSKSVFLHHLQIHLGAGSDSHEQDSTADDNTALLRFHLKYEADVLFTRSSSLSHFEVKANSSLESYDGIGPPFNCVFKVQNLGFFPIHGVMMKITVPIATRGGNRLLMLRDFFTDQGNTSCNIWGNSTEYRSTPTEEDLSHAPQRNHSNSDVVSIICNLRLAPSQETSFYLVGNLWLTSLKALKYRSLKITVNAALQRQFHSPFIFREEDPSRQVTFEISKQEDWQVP
Chain of mouse α11β1 (P09055 21-728 partner limits assumed): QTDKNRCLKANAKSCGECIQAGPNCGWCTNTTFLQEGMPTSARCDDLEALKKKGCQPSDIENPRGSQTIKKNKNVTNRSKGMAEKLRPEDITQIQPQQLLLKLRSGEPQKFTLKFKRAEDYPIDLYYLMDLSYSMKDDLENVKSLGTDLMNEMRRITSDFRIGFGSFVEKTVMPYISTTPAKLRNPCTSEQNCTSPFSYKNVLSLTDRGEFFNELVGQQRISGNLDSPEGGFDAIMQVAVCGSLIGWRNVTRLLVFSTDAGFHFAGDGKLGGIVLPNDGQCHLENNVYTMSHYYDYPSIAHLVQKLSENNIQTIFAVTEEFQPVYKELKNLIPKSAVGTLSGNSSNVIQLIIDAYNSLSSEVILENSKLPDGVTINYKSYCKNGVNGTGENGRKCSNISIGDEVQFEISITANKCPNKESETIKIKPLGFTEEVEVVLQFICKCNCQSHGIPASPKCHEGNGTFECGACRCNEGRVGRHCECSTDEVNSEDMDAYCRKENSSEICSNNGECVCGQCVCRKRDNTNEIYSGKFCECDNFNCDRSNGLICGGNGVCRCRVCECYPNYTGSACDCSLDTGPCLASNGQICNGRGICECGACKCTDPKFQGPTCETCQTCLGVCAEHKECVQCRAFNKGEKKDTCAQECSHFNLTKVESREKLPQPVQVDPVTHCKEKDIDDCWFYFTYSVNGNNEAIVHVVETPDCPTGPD
Chain of human α11β1 (Q9UKX5 23-1141 limits assumed): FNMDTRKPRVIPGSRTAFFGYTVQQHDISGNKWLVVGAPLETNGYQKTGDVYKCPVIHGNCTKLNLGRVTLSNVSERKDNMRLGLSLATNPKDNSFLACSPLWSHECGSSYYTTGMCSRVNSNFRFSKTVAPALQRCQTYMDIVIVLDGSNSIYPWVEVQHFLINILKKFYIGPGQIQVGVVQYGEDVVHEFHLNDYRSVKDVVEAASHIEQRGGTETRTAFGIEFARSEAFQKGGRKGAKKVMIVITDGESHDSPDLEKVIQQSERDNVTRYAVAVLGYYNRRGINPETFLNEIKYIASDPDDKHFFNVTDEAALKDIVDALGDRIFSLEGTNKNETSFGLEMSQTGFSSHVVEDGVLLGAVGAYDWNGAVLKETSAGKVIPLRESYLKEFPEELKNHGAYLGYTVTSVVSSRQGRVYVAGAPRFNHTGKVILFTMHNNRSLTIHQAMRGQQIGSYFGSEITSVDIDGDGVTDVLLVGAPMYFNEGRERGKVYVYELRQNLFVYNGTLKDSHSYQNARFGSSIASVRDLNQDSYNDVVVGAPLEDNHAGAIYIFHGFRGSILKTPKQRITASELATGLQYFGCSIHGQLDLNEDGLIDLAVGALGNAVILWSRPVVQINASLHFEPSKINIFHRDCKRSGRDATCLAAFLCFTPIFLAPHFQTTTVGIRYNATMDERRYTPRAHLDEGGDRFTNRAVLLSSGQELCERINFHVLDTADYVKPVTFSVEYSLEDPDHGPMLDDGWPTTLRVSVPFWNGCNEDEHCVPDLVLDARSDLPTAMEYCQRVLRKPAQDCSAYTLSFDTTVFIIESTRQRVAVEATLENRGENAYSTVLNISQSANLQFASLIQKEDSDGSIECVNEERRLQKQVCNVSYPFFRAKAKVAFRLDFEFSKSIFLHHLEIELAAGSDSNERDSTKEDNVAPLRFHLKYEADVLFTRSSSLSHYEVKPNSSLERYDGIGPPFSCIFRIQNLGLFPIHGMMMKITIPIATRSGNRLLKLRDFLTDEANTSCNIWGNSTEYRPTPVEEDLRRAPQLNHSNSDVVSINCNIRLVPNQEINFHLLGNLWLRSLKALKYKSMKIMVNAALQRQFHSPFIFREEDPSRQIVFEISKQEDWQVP
Chain of human α11β1 (P05556 21-728 partner limits assumed): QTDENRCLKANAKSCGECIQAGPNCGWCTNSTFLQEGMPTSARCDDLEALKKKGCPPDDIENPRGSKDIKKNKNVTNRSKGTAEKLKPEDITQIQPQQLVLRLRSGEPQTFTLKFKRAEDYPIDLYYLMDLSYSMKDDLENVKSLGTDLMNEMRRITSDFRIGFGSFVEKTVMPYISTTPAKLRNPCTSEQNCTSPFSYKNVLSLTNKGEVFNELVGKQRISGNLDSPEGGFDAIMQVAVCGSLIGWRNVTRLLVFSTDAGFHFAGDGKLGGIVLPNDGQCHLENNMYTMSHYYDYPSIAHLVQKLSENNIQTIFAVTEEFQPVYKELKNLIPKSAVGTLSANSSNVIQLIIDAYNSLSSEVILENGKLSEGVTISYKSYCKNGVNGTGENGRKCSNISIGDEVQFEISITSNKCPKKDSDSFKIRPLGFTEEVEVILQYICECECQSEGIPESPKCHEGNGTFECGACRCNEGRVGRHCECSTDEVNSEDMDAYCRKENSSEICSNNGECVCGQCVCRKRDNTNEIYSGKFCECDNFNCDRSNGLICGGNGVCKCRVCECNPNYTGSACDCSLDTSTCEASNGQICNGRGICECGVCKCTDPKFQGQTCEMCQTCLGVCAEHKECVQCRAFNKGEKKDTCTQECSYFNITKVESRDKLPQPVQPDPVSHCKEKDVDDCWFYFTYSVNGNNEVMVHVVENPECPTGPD

B1: 3B1: rabbit anti-α11β1 mAb; heavy chain SEQ ID NO: 201, light chain SEQ ID NO: 202 (antibody)
heavy: METGLRWLLLVAVLKGVQCQEQLEESGGGLVKPEGSLTLTCKASGFDLSSGYDMCWVRQAPGKGLEWIACIYADYSGSTYYASWVNGRFTISSSTSLNTVDLKMTSLTAADTATYFCARGATGNGGYGYYFNLWGPGTLVTVSSGQPKAPSVFPLAPCCGDTPSSTVTLGCLVKGYLPEPVTVTWNSGTLTNGVRTFPSVRQSSGLYSLSSVVSVTSSSQPVTCNVAHPATNTKVDKTVAPSTCSKPMCPPPELPGGPSVFIFPPKPKDTLMISRTPEVTCVVVDVSQDDPEVQFTWYINNEQVRTARPPLREQQFNSTIRVVSTLPIAHQDWLRGKEFKCKVHNKALPAPIEKTISKARGQPLEPKVYTMGPPREELSSRSVSLTCMINGFYPSDISVEWEKNGKAEDNYKTTPTVLDSDGSYFLYSKLSVPTSEWQRGDVFTCSVMHEALHNHYTQKSISRSPGK
light: MDTRAPTQLLGLLLLWLPGARCADIVMTQTPASVSEPVGGTVTIKCQASQNINSGLAWYQQKPGQPPKLLIYKASTLASGVSSRFKGSGSGTEFTLTISDLECADAATYYCQTYYYSSSSSDNAFGGGTEVVVKGDPVAPTVLIFPPAADQVATGTVTIVCVANKYFPDVTVTWEVDGTTQTTGIENSKTPQNSADCTYNLSSTLTLTSTQYNSHKEYTCKVTQGTTSVVQSFNRGDC
Regarding B1, in the test with human α11β1, the “Human α11β1 ELISA” value is “Yes”. In addition, the “HPF FACS” value in test [1] is “No”. For the same molecule, the “MF FACS” value in the test on myofibroblasts (MF) is “Yes”. Moreover, the “I Domain binding” value in the test with I domain of α11β1 is reported as “No”. For the same molecule, in test [2], the “Inhibition of CHO-K1 adhesion to collagen” value (“Inhibition” below) is “Yes”. Also, the “Murine α11β1 ELISA” value with mouse α11β1 is “No”.

B2: 5A7: rabbit anti-α11β1 mAb; heavy chain SEQ ID NO: 193, light chain SEQ ID NO: 194 (antibody)
heavy: METGLRWLLLVAVLKGVQCQSLEESGGGLVQPEGSLTLACTASGFSFSSYYYICWVRQAPGTGLEWIGCINTGSDDTHYASWLKGRFTFSKASSTTLTLQMTSLTAADTATYFCARSSGSSDDAYDLWGPGTLVTVSSGQPKAPSVFPLAPCCGDTPSSTVTLGCLVKGYLPEPVTVTWNSGTLTNGVRTFPSVRQSSGLYSLSSVVSVTSSSQPVTCNVAHPATNTKVDKTVAPSTCSKPMCPPPELPGGPSVFIFPPKPKDTLMISRTPEVTCVVVDVSQDDPEVQFTWYINNEQVRTARPPLREQQFNSTIRVVSTLPIAHQDWLRGKEFKCKVHNKALPAPIEKTISKARGQPLEPKVYTMGPPREELSSRSVSLTCMINGFYPSDISVEWEKNGKAEDNYKTTPTVLDSDGSYFLYSKLSVPTSEWQRGDVFTCSVMHEALHNHYTQKSISRSPGK
light: MDTRAPTQLLGLLLLWLPGARCDVVMTQTPASVSEPVGGAVTIKCQASQSIGSNLAWYQHKPGQPPKLLIYFASSLASGVSSRFKGGRSGTQFTLTISDLECADAATYYCHCTYYPLSYVTFGGGTEVVVKGDPVAPTVLIFPPAADQVATGTVTIVCVANKYFPDVTVTWEVDGTTQTTGIENSKTPQNSADCTYNLSSTLTLTSTQYNSHKEYTCKVTQGTTSVVQSFNRGDC
On to B2, for which, in the test with human α11β1, the “Human α11β1 ELISA” value was “Yes”. Moreover, the “HPF FACS” value in test [1] was “No”. In addition, the “MF FACS” value in the test on myofibroblasts (MF) is given as “Yes”. Besides, in the test with I domain of α11β1, the “I Domain binding” value is recorded as “No”. Further, the “Inhibition” value in test [2] was “Yes”. The “Murine α11β1 ELISA” value with mouse α11β1 is listed as “No”.

B3: 5D7: rabbit anti-α11β1 mAb; heavy chain SEQ ID NO: 191, light chain SEQ ID NO: 192 (antibody)
heavy: METGLRWLLLVAVLKGVQCQEQLVESGGGLVQPEGSLTLTCKASGFDFSSNAMCWVRQAPGKGLEWIACIYNGDGSTYYASWVNGRFTISKTSSTTVTLQMTSLTAADTATYFCARGLSNWNRDNLWGPGTLVTVSSGQPKAPSVFPLAPCCGDTPSSTVTLGCLVKGYLPEPVTVTWNSGTLTNGVRTFPSVRQSSGLYSLSSVVSVTSSSQPVTCNVAHPATNTKVDKTVAPSTCSKPMCPPPELPGGPSVFIFPPKPKDTLMISRTPEVTCVVVDVSQDDPEVQFTWYINNEQVRTARPPLREQQFNSTIRVVSTLPIAHQDWLRGKEFKCKVHNKALPAPIEKTISKARGQPLEPKVYTMGPPREELSSRSVSLTCMINGFYPSDISVEWEKNGKAEDNYKTTPTVLDSDGSYFLYSKLSVPTSEWQRGDVFTCSVMHEALHNHYTQKSISRSPGK
light: MDTRAPTQLLGLLLLWLPGATFAQVLTQTPSSVSAAVGGTATINCQASQSLYSPKNLAWYQQTPGQPPKLLIYSASKLASGVPSRFKGSGSGTQFTLTISGVQCDDAAIYYCQGEFSCTTAACFAFGGGTEVVVKGDPVAPTVLIFPPAADQVATGTVTIVCVANKYFPDVTVTWEVDGTTQTTGIENSKTPQNSADCTYNLSSTLTLTSTQYNSHKEYTCKVTQGTTSVVQSFNRGDC
Take B3: the “Human α11β1 ELISA” value with human α11β1 is “Yes”. Further, the “HPF FACS” value in test [1] is given as “No”. The “MF FACS” value in the test with myofibroblasts (MF) is “Yes”. The “I Domain binding” value with I domain of α11β1 is “No”. Also, the “Inhibition” value in test [2] is on record as “Yes”. Besides, in the test with mouse α11β1, the “Murine α11β1 ELISA” value was “No”.

B4: 10-L15: mouse anti-α11β1 mAb; VH SEQ ID NO: 119, VL SEQ ID NO: 120 (antibody, V domains shown)
VH: QVQLQQSGPELVRPGASVKMSCKASGYTFTSYWMHWVKQRPGQGLEWIGMIDPSNSETWLNQKFKDKATLNVDKSSNTAYMQLSSLTSEDSAVYYCARYDGYYDYWGQGTTLTVSS
VL: NIVLTQSPASLAVSLGQRATISCRASESVDSYGNSFMHWYQQKPGQPPKLLIYLASNVESGVPARFSGSGSRTDFTLTIDPVEADDAATYYCQQNNEDPWTFGGGTKLEIK
Consider B4, for which the “Human α11β1 ELISA” value with human α11β1 is “Yes”. Besides, the “HPF FACS” value in test [1] is “No”. For the same molecule, the “MF FACS” value in the test on myofibroblasts (MF) was “No”. Further, the “I Domain binding” value in the test with I domain of α11β1 was “Yes”. The “Inhibition” value in test [2] is reported as “No”. Besides, the “Murine α11β1 ELISA” value with mouse α11β1 is given as “Yes”.
